Key:
[1] = molecular target: T1, purified 115 kDa APN from Manduca sexta (Manduca sexta, UniProt Q11001); conditions: Masson et al., 1995; cited from earlier work
T1 sequence (Q11001 36-968 limits assumed): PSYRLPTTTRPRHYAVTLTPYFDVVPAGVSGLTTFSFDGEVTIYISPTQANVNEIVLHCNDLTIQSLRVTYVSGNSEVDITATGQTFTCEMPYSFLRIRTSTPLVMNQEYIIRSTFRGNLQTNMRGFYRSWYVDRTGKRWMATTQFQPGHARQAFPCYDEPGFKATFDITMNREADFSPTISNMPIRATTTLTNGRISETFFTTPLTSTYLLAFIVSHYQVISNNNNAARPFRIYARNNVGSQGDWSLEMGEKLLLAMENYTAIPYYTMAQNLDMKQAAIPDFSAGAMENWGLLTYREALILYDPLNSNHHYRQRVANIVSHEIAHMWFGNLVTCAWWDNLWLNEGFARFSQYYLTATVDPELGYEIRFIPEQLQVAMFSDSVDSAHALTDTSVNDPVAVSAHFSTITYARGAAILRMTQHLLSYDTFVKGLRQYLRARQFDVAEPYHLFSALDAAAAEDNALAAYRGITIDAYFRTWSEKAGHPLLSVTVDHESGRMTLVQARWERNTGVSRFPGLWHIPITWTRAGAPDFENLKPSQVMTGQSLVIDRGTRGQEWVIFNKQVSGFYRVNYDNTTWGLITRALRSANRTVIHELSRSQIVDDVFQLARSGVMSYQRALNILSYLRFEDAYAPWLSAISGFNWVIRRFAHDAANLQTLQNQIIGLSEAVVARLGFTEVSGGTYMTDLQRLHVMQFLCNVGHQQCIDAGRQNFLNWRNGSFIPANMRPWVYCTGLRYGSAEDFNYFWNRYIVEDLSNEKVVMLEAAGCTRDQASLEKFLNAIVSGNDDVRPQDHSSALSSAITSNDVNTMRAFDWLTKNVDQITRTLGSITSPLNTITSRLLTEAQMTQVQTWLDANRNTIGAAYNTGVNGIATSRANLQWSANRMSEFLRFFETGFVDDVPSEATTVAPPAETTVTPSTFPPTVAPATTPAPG

[2] = tested on: expressed 120 kDa APN from Sf21 cells; assay: Toxin affinity chromatography and anti-APN immunoblot, Sf21 cells; assay type: binding, Manduca sexta; conditions: CHAPS-solubilized Sf21 cells, anti-APN immunoblot (FIG. 13)
Protocol: Affinity purification method of M. sexta 120 kDa APN from Sf21 cells or M. sexta midgut BBMV was described in Luo et al (1996). Briefly, Cry1Ac, Cry1Ba and Cry3a toxins (200 μg) were coupled to 400 μl of cyanogen bromide-activated Sepharose 4B in 20 mM Na2CO3, pH 9.6. M sexta BBMV (1 ml, 3.4 mg/ml proteins) or Sf21 cells (10^7 cells) were solubilized with 2% 3-[(3-cholamidopropyl) dimethylammoniol]-1-propane-sulphonate (CHAPS) in buffer A (50 mM Na2CO3, pH 9.6, 200 mM NaCl, 5 mM EGTA, 0.1% CHAPS). Insoluble material was removed by centrifugation at 27,000×g for 30 min at 4° C. CHAPS-solubilized BBMV (1 ml) or Sf21 cells (2 ml) were then added to the toxin-coupled Sepharose beads equilibrated with Buffer A. The mixture was incubated at 4° C. overnight. After washing with 100 ml of Buffer A, the binding protein-toxin complex was dissociated from the beads by heating in SDS-PAGE sample buffer at 100° C. for 5 min. The samples were separated by 8% SDS-PAGE, and then electrophoretically transferred to nitrocellulose membrane (Millipore Corp., Bedford, Mass.) in transfer buffer (Towbin et al., 1979) at 4° C. overnight. The membrane was blocked with 5% non-fat dry milk in PBST at room temperature for 1 h, and then probed with anti-APN antibody (0.5 μg/ml) in PBST containing 0.1% non-fat dry milk for 2 h. […]

[3] = molecular target: T2, M. sexta 120 kDa APN (Manduca sexta, UniProt Q11001); conditions: previous studies (Knight 1994; Sangadala 1994; Masson 1995; Lu and Adang 1996); cited from earlier work
T2 sequence (Q11001 36-968): T1 sequence (Q11001 36-968 limits assumed)

[4] = tested on: expressed 120 kDa APN on Sf21 cells transfected with pHSP120; assay: Immunofluorescence binding of rhodamine-labeled toxins to Sf21 cells (confocal microscopy), pHSP120; parameters: species or system Manduca sexta; conditions: toxin 1 μg/ml, fixed Sf21 cells transfected with pHSP120
Protocol: Growth of B. thuringiensis strains, trypsin activation, and fast-performance liquid chromatography (Pharmacia) purification of Cry1Ac, […] and Cry3a toxins were done as previously described (Garczynski et al 1991; Lu and Adang 1996). […] The purified Cry1Ac and Cry1Ba (200 μg) were labeled with 5-(and-6)-carboxytetramethylrhodamine, succinimidyl ester [5(6)-TAMRA SE] (Molecular Probe, Eugene, Oreg.) according to the manufacturer's instructions. Briefly, 5(6)-TAMRA (5 mg) were dissolved in 0.5 ml of Dimethylformamide (DMF) immediately before starting the labeling. The dye solution (100 μl) was slowly added into 500 μl of toxin sample (200 μg toxins) and incubated for 1 h at room temperature. The reaction was stopped by adding 0.1 ml of 1.5 M hydroxylamine, pH 8.5, and then the mixture was incubated. for 1h at room temperature. […]
Sf21 cells were plated onto a microscope cover glass (18×18 mm) in a tissue culture dish (60×15 mm diameter), and then transfected and heat-shocked as described above. […] Immunostained cells were observed using fluorescence microscopy or fluorescence confocal microscopy (Center for Advanced Ultrastructural Research, University of Georgia).
Since the expressed 120 kDa APN located on Sf21 cell surfaces, we examined the binding of Cry1toxins to Sf21 cells using double immunofluorescence staining. […] And then cells were viewed by fluorescence confocal microscopy.

[5] = tested on: Sf21 cells transfected with pHSP-HR5; assay: Toxicity assay (Trypan blue cell mortality), control-vector Sf21 cells; conditions: 2 h
Protocol: The pHSP120 plasmid DNA was isolated and purified using a Plasmid Maxi Kit (Qiagen, Valencia, Calif.). Sf21 (IPLB-Sf21) cells (Vaughn et al., 1977) were plated at 1.8×10^6 cells per plate (60 mm diameter) prior to transfection with pHSP120 DNA. Plasmid DNA (10 μg) was mixed with 5 μl of Lipofectin reagent (Gibco BRL, Gaithersburg, Md.) and combined with 1 ml of TC-100 medium (Gibco BRL, Gaithersburg, Md.). The mixture was incubated at room temperature for 15 min. Following 3 washes with TC-100 medium, the DNA/Lipofectin mixture was added to the cells, and then the cells were incubated at room temperature for 4 h on a rocker. After removal of DNA/Lipofectin mixture, TC-100 with 10% fetal bovine serum (4 ml) was added to the plates and the cells were incubated at 27° C. overnight. […] After incubation at 27° C. for 24 h, the cells were collected and analyzed using immunofluorescence localization and Western blotting.
Sf21 cells (1.8×10^6) were grown and heat-shocked as described above. […] Cell mortality was determined by trypan blue staining as described by Thomas and Ellar (1983).
(§1) Thetoxicity of three Cry1toxins to Sf21 cells expressing M sexta 120 APN was determined. A single concentration of Cry1toxins (40 μg/ml) was used and the cell mortality was measured by Trypan blue staining (Thomas and Ellar 1983).

[6] = tested on: Sf21 cells transfected with pHSP120; assay: Toxicity assay (Trypan blue cell mortality), Sf21 cells expressing M. sexta 120 kDa APN; conditions: 2 h
Protocol: The pHSP120 plasmid DNA was isolated and purified using a Plasmid Maxi Kit (Qiagen, Valencia, Calif.). Sf21 (IPLB-Sf21) cells (Vaughn et al., 1977) were plated at 1.8×10^6 cells per plate (60 mm diameter) prior to transfection with pHSP120 DNA. Plasmid DNA (10 μg) was mixed with 5 μl of Lipofectin reagent (Gibco BRL, Gaithersburg, Md.) and combined with 1 ml of TC-100 medium (Gibco BRL, Gaithersburg, Md.). The mixture was incubated at room temperature for 15 min. Following 3 washes with TC-100 medium, the DNA/Lipofectin mixture was added to the cells, and then the cells were incubated at room temperature for 4 h on a rocker. After removal of DNA/Lipofectin mixture, TC-100 with 10% fetal bovine serum (4 ml) was added to the plates and the cells were incubated at 27° C. overnight. Expression of 120 kDa APN in Sf21 cells was induced by heat-shocking cells at 42° C. for 30 min the following day. After incubation at 27° C. for 24 h, the cells were collected and analyzed using immunofluorescence localization and Western blotting.
Sf21 cells (1.8×10^6) were grown and heat-shocked as described above. […] The freshly prepared toxin solution (1 ml) was added to each Sf21 cell plate and incubated at room temperature for 2 h. Cell mortality was determined by trypan blue staining as described by Thomas and Ellar (1983).
as §1

[7] = tested on: enzymatic activity of Sf21 cells transfected with pHSP-HR5; assay: Aminopeptidase N activity assay (L-leucine-p-nitroanilide), homogenate of pHSP-HR5-transfected Sf21 cells; assay type: biochemical, Spodoptera frugiperda; conditions: homogenate 50 μg of proteins, pHSP-HR5-transfected Sf21 cells (FIG. 9, column D)
Protocol: (§2) Sf21 cells transfected with pHSP120 or pHSP-HR5 were collected and washed two times with PBS. The cells were suspended in 2 ml PBS and then homogenized with Potter-Helvehjem homogenizer. The cell homogenate was centrifuged at 27,000×g for 15 min at 4° C. The pellet was re-suspended in 2 ml of 10 mM Tris-HCl, 150 mM NaCl, pH 7.4. APN activity was assayed with L-leucine-p-nitroanilide as substrate as described previously (4). Briefly, the APN substrate (50 μl 6.8 mg/ml in methanol) was mixed with 1.4 ml of substrate buffer (10 mM Tris-HCl, 150 mM NaCl pH 7.4), and then the homogenate (50 μg of proteins) was added. The sample solution was incubated at 37° C. for 2 h. The level of APN activity was then determined by spectrophotometric measurement of free p-nitroanilide at […].
(§3) Sf21 cells transfected with pHSP120 or pHSP-HR5 were collected and homogenized. The homogenate (50 μg of proteins) was tested for APN activity. A high level of APN activity was present in the cells transfected pHSP120 compared with that in the cells transfected with pHSP-HR5 (FIG. 9, columns A and C).

[8] = tested on: expressed M sexta APN1a; assay: Aminopeptidase N activity assay (L-leucine-p-nitroanilide), homogenate of pHSP120-transfected Sf21 cells; assay type: biochemical, Manduca sexta; conditions: homogenate 50 μg of proteins, pHSP120-transfected Sf21 cells (FIG. 9, column B)
Protocol: as §2, §3

Cry1Ac: trypsin-activated, purified B. thuringiensis Cry1Ac toxin
Binding to purified 115 kDa APN [1]: bind | Binding of APN to toxin affinity column [2]: did not bind | Specific binding to M. sexta 120 kDa APN [3]: bound specifically | Binding of rhodamine-labeled toxin (immunofluorescence) [4]: does not bind | Mortality (%) (±SE), Cells transfected with pHSP-HR5 ([5]; 40 μg/ml toxin in insect PBS, Trypan blue (0.1%) staining, means of three assays (±standard error), control vector): 20.6 (±0.5) % | Toxicity in words ([5]; 40 μg/ml toxin, Sf21 cells transfected with pHSP-HR5): low toxicity | Mortality (%) (±SE), Cells transfected with pHSP 120 ([6]; 40 μg/ml toxin in insect PBS, Trypan blue (0.1%) staining, means of three assays (±standard error)): 20.0 (±0.4) % | Difference in mortality between pHSP120- and pHSP-HR5-transfected Sf21 cells ([6]; 40 μg/ml toxin): no significant difference | Toxicity in words ([6]; 40 μg/ml toxin, Sf21 cells transfected with pHSP120): low toxicity

Cry1Ab: Bacillus thuringiensis Cry1 δ-endotoxin (literature)
Binding to purified 115 kDa APN [1]: bind | Specific binding to M. sexta 120 kDa APN [3]: bound specifically

Cry1Aa: Bacillus thuringiensis Cry1 δ-endotoxin (literature)
Binding to purified 115 kDa APN [1]: bind | Specific binding to M. sexta 120 kDa APN [3]: bound specifically

CC(C)C[C@@H](N)[C@H](O)C(=O)N[C@H](C(=O)N[C@H](C(=O)N[C@@H](CC(=O)O)C(=O)O)C(C)C)C(C)C [Amastatin]
Effect on APN activity [7]: did not show significantly impact | Effect on APN activity [8]: greatly reduced

Reference: patent US6586197B1, “Methods and materials for identifying novel pesticide agents” (priority 1999, dated 2003)
